Measurements from patent EP4814009A1 (Medpacto Inc., dated 2026).

Biological target: T1, biotinylated TGF-β1 (R&D Systems, Catalog #NFTG0) (UniProt P01137 279-390, biotinylated (sites not given))
T1 construct: Detection reagent of the sandwich ELISA, 1:50 diluted in PBS
Assay: sandwich ELISA, simultaneous binding of EDB-FN-6x His (coated) and biotinylated TGF-β1

T1 sequence (P01137 279-390 limits assumed): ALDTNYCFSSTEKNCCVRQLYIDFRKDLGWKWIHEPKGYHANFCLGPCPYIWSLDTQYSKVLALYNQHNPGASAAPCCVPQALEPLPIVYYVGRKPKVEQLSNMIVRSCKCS

binding result: binds
B1: Anti-EDB-FN scFv-TGFβ Trap (other)
chain: EVQLLESGGGLVQPGGSLRLSCAASGFTFSSFSMSWVRQAPGKGLEWVSSISGSSGTTYYADSVKGRFTISRDNSKNTLYLQMNSLRAEDTAVYYCAKPFPYFDYWGQGTLVTVSSGGGGSGGGGSGGGGSEIVLTQSPGTLSLSPGERATLSCRASQSVSSSFLAWYQQKPGQAPRLLIYYASSRATGIPDRFSGSGSGTDFTLTISRLEPEDFAVYYCQQTGRIPPTFGQGTKVEIKSSSSGSSSSGSSSSGIPPHVQKSVNNDMIVTDNNGAVKFPQLCKFCDVRFSTCDNQKSCMSNCSITSICEKPQEVCVAVWRKNDENITLETVCHDPKLPYHDFILEDAASPKCIMKEKKKPGETFFMCSCSSDECNDNIIFSEEYNTSNPD
notes: L19 scFv fused onto the TGFβ Trap without Fc; also called Anti-EDB-FN scFv-TGFβ Trap without Fc fusion
